Results taken from paper PMC4399878, “Probing the Run-On Oligomer of Activated SgrAI Bound to DNA”.
Positions count from the first letter of the chain named.

Assays:
[1] = target: T1, SgrAI wild type (UniProt Q9F6L0 1-339); assay: fluorescence anisotropy; 10 mM Ca2+; 20 mM Tris-HOAc pH 8.0 (RT), 50 mM KOAc, 10 mM Ca(OAc)2 (or Mg(OAc)2), 1 mM DTT, 4 C for anisotropy and gel run; 10% glycerol for EMSA and R131A/R134A, none for wild type with 40-mers; conditions: protein: recombinant, tags: none (untagged wild type; a C-terminal 6xHis version was also made), chain copies: 2
T1 sequence: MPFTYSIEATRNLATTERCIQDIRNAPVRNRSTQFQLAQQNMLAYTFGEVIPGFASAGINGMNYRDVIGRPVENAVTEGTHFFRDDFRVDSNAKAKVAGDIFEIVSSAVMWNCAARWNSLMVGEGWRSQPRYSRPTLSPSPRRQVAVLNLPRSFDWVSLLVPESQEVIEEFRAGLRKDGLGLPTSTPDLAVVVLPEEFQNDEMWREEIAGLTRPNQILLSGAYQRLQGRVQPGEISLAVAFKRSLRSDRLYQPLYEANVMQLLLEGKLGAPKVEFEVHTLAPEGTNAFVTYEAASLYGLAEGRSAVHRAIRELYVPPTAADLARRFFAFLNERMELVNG

[2] = target: T1, SgrAI wild type; assay: fluorescence anisotropy; 10 mM Mg2+; 20 mM Tris-HOAc pH 8.0 (RT), 50 mM KOAc, 10 mM Ca(OAc)2 (or Mg(OAc)2), 1 mM DTT, 4 C for anisotropy and gel run; 10% glycerol for EMSA and R131A/R134A, none for wild type with 40-mers; conditions: protein: recombinant; tags: none (untagged wild type; a C-terminal 6xHis version was also made); chain copies: 2; label: 5' Hex (Methods)
[3] = target: T2, SgrAI A57E (UniProt Q9F6L0 1-339, A57E); assay: EMSA; 10 mM Ca2+; 20 mM Tris-HOAc pH 8.0 (RT), 50 mM KOAc, 10 mM Ca(OAc)2 (or Mg(OAc)2), 1 mM DTT, 4 C for anisotropy and gel run; 10% glycerol for EMSA and R131A/R134A, none for wild type with 40-mers; conditions: protein: recombinant; chain copies: 2; label: 5' 32P (S56E, A57E) or 5' fluorescein on top strand (R131A, R134A)
T2 sequence: T1 sequence with A57E

[4] = target: T3, SgrAI S56E (UniProt Q9F6L0 1-339, S56E); assay: as above; conditions: protein: recombinant; chain copies: 2; label: 5' 32P (S56E, A57E) or 5' fluorescein on top strand (R131A, R134A)
T3 sequence: T1 sequence with S56E

[5] = target: T4, SgrAI R131A (UniProt Q9F6L0 1-339, R131A); assay: fluorescence anisotropy; 10 mM Ca2+; 20 mM Tris-HOAc pH 8.0 (RT), 50 mM KOAc, 10 mM Ca(OAc)2 (or Mg(OAc)2), 1 mM DTT, 4 C for anisotropy and gel run; 10% glycerol for EMSA and R131A/R134A, none for wild type with 40-mers; conditions: protein: recombinant; chain copies: 2; label: 5' 32P (S56E, A57E) or 5' fluorescein on top strand (R131A, R134A)
T4 sequence: T1 sequence with R131A

[6] = target: T5, SgrAI R134A (UniProt Q9F6L0 1-339, R134A); assay: as above; conditions: protein: recombinant; chain copies: 2; label: 5' 32P (S56E, A57E) or 5' fluorescein on top strand (R131A, R134A)
T5 sequence: T1 sequence with R134A

[7] = label: 5' fluorescein on top strand

B1: 40-2A (dsDNA)
DNA 1: GATGCGTGGGTCTTCACACCGGGGGTCTGCTCAAAATGAG
DNA 2: CTCATTTTGAGCAGACCCCCGGTGTGAAGACCCACGCATC
For B1, the Kd [1, 7] was 27 ± 2 nM.

B2: 40-2B (dsDNA)
DNA 1: B1 DNA 1 with G23T, G24C
DNA 2: B1 DNA 2 with C17G, C18A
For B2, the Kd [1, 7] was 17 ± 3 nM.

B3: 40-NCTA (40-NC-TA) (dsDNA)
DNA 1: B1 DNA 1 with A18T, G23A
DNA 2: B1 DNA 2 with C18T, T23A
With B3 the Kd ([1]; label: 5' Hex (Methods)) was 0.5 ± 0.1 nM and the Kd [2] was 2.8 ± 0.5 nM.

B4: PC DNA (dsDNA)
DNA 1: GATGCGTGGGTCTTCACA
DNA 2: CCGGTGTGAAGACCCACGCATC
B4 showed a Kd [3] of 5 ± 2 nM, a Kd [4] of 0.26 ± 0.02 nM and a Kd [5] of 60 ± 20 nM. For the same binder, the Kd [6] was 13 ± 6 nM.
